{"source": "paper PMC5969510", "about": "“Molecular mechanics of coiled coils loaded in the shear geometry” (Chemical Science, 2018)", "origin": "cited, not measured here", "settings": "unzip geometry", "source_text": "To overcome these limitations and to investigate the sequence–structure–mechanics relationship of coiled coils in more systematic detail, site-specific coupling strategies were used in more recent experiments so that the mechanical coordinate was precisely defined. Using coiled coil homodimers, the force was applied to both helices at the same terminus so that the coiled coils were mechanically loaded in the so-called ‘unzip’ geometry.[11],[17],[37],[38]"}
{"substance": "vimentin: intermediate filament protein with coiled coil (literature)", "values": [{"measurement": "unzipping (unfolding) force", "value": "8–15 pN"}]}
